Laboratory results from the supplement of paper PMC12042874.
± gives the uncertainty stated by the source.

Assay: amyloid nucleation score (Sup35N fusion, yeast selection) (log enrichment); library NNK2; higher = more nucleation; inactive = no reads after selection
Summary of the method: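 Psi-negative yeast expressed Sup35N fused to peptides of 20 random codons. They were induced 24 hours with 100 μM copper sulfate, grown 7 days at 30°C without adenine and uracil, and their plasmid inserts from input and output were Illumina-sequenced. The nucleation score is the DiMSum log enrichment of output over input reads, centred on the mode score of non-aggregating sequences. Sequences with under 100 input reads were excluded.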
Work on DLWRY yielded an amyloid nucleation score of 0.102 ± 0.77.
For DLYRYNMLKDVV, the amyloid nucleation score was 4.403 ± 0.037.
Substance DLYSSV has an amyloid nucleation score of 0.75 ± 0.41.
For DNDRHNAVALRSSVIVLLGK, the amyloid nucleation score was “inactive”.
With DNLSGMIPTKTVDSSRP the amyloid nucleation score was 0.611 ± 0.81.
In the case of DNMGMRSGSSDLHREVWSHC, the amyloid nucleation score is reported as 0.172 ± 0.35.
For DNRGKLDWAPSSVVSVWLIC, the amyloid nucleation score was 3.74 ± 0.089.
With DPAELQ the amyloid nucleation score was -0.256 ± 0.79.
In the case of DPWRGGPVSSH, the amyloid nucleation score is reported as 1.18 ± 0.23.
For DQDSNSFAQSVVSHNVLVNI, the amyloid nucleation score was “inactive”.
DQEALGRLWYLFAHGSLVTR showed an amyloid nucleation score of 0.847 ± 0.44.
Work on DQGVMLFRG yielded an amyloid nucleation score of -0.134 ± 0.32.
Substance DQKAIVMVRNLDAWVGCAHY has an amyloid nucleation score of 0.266 ± 0.46.
With DREVSRVGLD the amyloid nucleation score was 1.29 ± 0.34.
Work on DREWVYYCGYWECTMFRCIY yielded an amyloid nucleation score of 1.12 ± 0.16.
In the case of DRFMVMFMLKVGVIVWNYGD, the amyloid nucleation score is reported as 0.262 ± 0.54.
With DRGECYDLIGLCHSPVCCYP the amyloid nucleation score was -0.038 ± 0.42.
Work on DRGRSNWFRMMWIDGEHYSE yielded an amyloid nucleation score of -0.492 ± 0.61.
For DRLLHDTE, the amyloid nucleation score was -0.866 ± 0.76.
DRNMSVNI gave an amyloid nucleation score of 1.22 ± 0.44.
DRPGDRSGTAWAWFRCETGG gave an amyloid nucleation score of 1.1 ± 0.31.
DRSRLGVGGVDVLWFLHSSK showed an amyloid nucleation score of 5.328 ± 0.046.
Substance DRTGGPIWVVGYPARGRAAL has an amyloid nucleation score of 0.99 ± 0.29.
In the case of DRVCAGLKPVRNN, the amyloid nucleation score is reported as 0.836 ± 0.31.
In the case of DRYWLERWSDGNCGRSARIR, the amyloid nucleation score is reported as 1.22 ± 0.4.
Substance DSGVEMYLFNSRFLRSLGND has an amyloid nucleation score of 3.65 ± 0.052.
DSIARYCVTYLWCNLHLLVK gave an amyloid nucleation score of 4.01 ± 0.13.
DSLTCCIS gave an amyloid nucleation score of 3.37 ± 0.093.
With DSRCIDTVFNWYEHTSSRYR the amyloid nucleation score was -0.287 ± 0.55.
In the case of DSSSVGGVLPVCVNSKSMED, the amyloid nucleation score is reported as -0.236 ± 0.41.
DTVALCNWLMRLESFSFAGQ gave an amyloid nucleation score of 1.83 ± 0.19.
Work on DTVISCLGVG yielded an amyloid nucleation score of -0.087 ± 1.
With DVDSCW the amyloid nucleation score was 0.554 ± 0.43.
With DVIPRVMIKALT the amyloid nucleation score was 0.063 ± 0.56.
Work on DVKWPYRLDFVKLYYIYKEG yielded an amyloid nucleation score of -1.88 ± 0.53.
With DVYVVIPNYGPQEWVSNYS the amyloid nucleation score was -0.341 ± 0.5.
For DWFSTLHLIGSAS, the amyloid nucleation score was -0.041 ± 0.63.
With DWGGVLCATVG the amyloid nucleation score was “inactive”.
With DWKNYRMMHVEVWTACRILG the amyloid nucleation score was 0.734 ± 0.81.
DWLYMMKIARSPVVCRSRPS gave an amyloid nucleation score of 0.38 ± 0.35.
For DWQYRLKSVLVFRWQ, the amyloid nucleation score was 3.5 ± 0.15.
In the case of DYAFRVYSGIPLKLSNS, the amyloid nucleation score is reported as -0.373 ± 0.65.
Substance DYANELVA has an amyloid nucleation score of 0.099 ± 0.25.
DYDEIMRLMLWSSLLLFR showed an amyloid nucleation score of 0.47 ± 0.34.
In the case of DYIIVRMCADILSGSVHGAM, the amyloid nucleation score is reported as -0.068 ± 0.45.
In the case of DYTSCEDVLSVVRPWNYNVE, the amyloid nucleation score is reported as 0.714 ± 0.47.
Substance DYVMYPGLVAMLSVSTPSQE has an amyloid nucleation score of 0.477 ± 0.49.
EAAYLVFSCVMCTFYFEFCF showed an amyloid nucleation score of 2.55 ± 0.089.
With EAFNTSCLVFLRNDWYWSGF the amyloid nucleation score was “inactive”.
In the case of EALMSSTIYYVPCSRHLIMF, the amyloid nucleation score is reported as -0.576 ± 0.63.
In the case of EAWRNLYFGLSRRHRRYGSL, the amyloid nucleation score is reported as 1.49 ± 0.18.
For ECERERYLLGTRT, the amyloid nucleation score was 0.322 ± 0.25.
Substance ECGPWKFDRIERDMNAVVER has an amyloid nucleation score of 2.46 ± 0.17.
ECGVLFV showed an amyloid nucleation score of 0.827 ± 0.6.
In the case of ECRMRLVFHRSIGYTTQCFV, the amyloid nucleation score is reported as 3.37 ± 0.064.
Substance ECYDFYTWESYGLGCTSCEK has an amyloid nucleation score of -0.01 ± 0.43.
For EDCVMISTCNFLFTINVLEA, the amyloid nucleation score was 6.38 ± 0.065.
EDIIIVQFVV showed an amyloid nucleation score of 0.424 ± 0.24.
Work on EDKNLVWLLCQGEM yielded an amyloid nucleation score of 4.43 ± 0.058.
In the case of EDTMFHNFQWSKAYLCYYWF, the amyloid nucleation score is reported as -0.294 ± 1.1.
EDVYKRTQRDWDCLILYQRY showed an amyloid nucleation score of -0.765 ± 0.76.
EEKDQRLISDSWGMF showed an amyloid nucleation score of -0.013 ± 0.56.
For EENGCS, the amyloid nucleation score was 1.22 ± 0.24.
In the case of EESFYTTPLSVFCVNLRYIV, the amyloid nucleation score is reported as -0.383 ± 1.1.
EFANWFVGYNQGSLGHALKQ showed an amyloid nucleation score of 0.355 ± 0.42.
EFGYFYLAMKISTSRYKQNY gave an amyloid nucleation score of 1.41 ± 0.14.
Work on EFHVRGDSDGYC yielded an amyloid nucleation score of -1.41 ± 1.1.
EFLYKLRLSLSMGCGHEELG gave an amyloid nucleation score of 4.72 ± 0.061.
EFMLSVRKVVPRIYGNNPRV showed an amyloid nucleation score of 2.78 ± 0.084.
Substance EFSRDRSENIAGTPSLRLNQ has an amyloid nucleation score of 4.56 ± 0.049.
EFWPIITTSRRDMISNLDQG gave an amyloid nucleation score of -0.593 ± 0.43.
